Test results taken from patent US20220168440A1, “ANTIBODY-PYRROLOBENZODIAZEPINE DEPRIVATIVE CONJUGATE” (DAIICHI SANKYO COMPANY, LIMITED, priority 2019, published 2022).

Key:
human CLDN4 = target: T1, human CLDN4 (human, UniProt O14493 1-209); assay: flow cytometry on transiently transfected 293T cells
T1 construct: whole, on cells
T1 sequence (looked up): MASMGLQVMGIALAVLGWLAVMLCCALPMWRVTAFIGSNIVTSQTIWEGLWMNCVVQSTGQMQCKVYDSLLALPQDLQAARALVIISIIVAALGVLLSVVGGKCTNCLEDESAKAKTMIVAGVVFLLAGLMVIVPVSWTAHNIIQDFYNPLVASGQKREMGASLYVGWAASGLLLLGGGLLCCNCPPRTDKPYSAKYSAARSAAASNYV
Protocol: (§1) Binding activity of the mouse anti-CLDN6 antibodies produced in Example 6 to human CLDN6 and its family molecules, CLDN3, CLDN4, and CLDN9, was evaluated by using a flow cytometry method. Human CLDN3/pCMV6-Entry, human CLDN4/pCMV6-Entry, human CLDN6/pCMV-Entry, human CLDN9/pCMV6-Entry, or pCMV6-Entry purchased from OriGene Technologies, Inc. was transiently transferred into 293T cells (Thermo Fisher Scientific, HCL4517) by using Lipofectamine 2000 (Thermo Fisher Scientific), and the cells were cultured under conditions of 37° C. and 5% CO₂ overnight, and then a cell suspension was prepared. […] The cells were washed twice with Dulbecco's phosphate buffered saline (Sigma-Aldrich Co. LLC) containing 5% fetal bovine serum (Hyclone) (hereinafter, referred to as 5% FBS-containing PBS), and FLUORESCEIN-CONJUGATED GOAT IGG FRACTION TO MOUSE IGG (WHOLE MOLECULE) (MP Biomedicals, Inc.) 500-fold diluted with 5% FBS-containing PBS was then added thereto, and the cells were suspended and left to stand at 4° C. for 1 hour. After washing twice with 5% FBS-containing PBS, detection was carried out by using a flow cytometer (FC500; Beckman Coulter, Inc.). Data analysis was carried out by using FlowJo (Tree Star, Inc.). […] In each graph in FIG. 40, the ordinate represents FITC fluorescence intensity indicating the amount of the binding antibody and the abscissa represents antibody concentrations.
(§2) The binding activity of the humanized anti-CLDN6 antibody produced in Example 10 to human CLDN6 and its family molecules, CLDN3, CLDN4, and CLDN9, was evaluated by using a flow cytometry method.

human CLDN3 = target: T2, human CLDN3 (human, UniProt O15551 1-220); assay: as above
T2 construct: whole, on cells
T2 sequence (looked up): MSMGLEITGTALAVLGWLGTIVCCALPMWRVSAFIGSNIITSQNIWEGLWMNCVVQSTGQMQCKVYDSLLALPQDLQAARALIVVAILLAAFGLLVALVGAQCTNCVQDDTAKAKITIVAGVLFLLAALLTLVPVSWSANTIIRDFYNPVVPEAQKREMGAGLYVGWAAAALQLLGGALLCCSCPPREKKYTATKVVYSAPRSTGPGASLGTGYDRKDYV
Protocol: as §1, §2

human CLDN9 = target: T3, human CLDN9 (human, UniProt O95484 1-217); assay: flow cytometry (MFI) on transiently transfected 293T cells
T3 construct: NP_066192; It was expressed on 293T cells transiently transfected with human CLDN9/pCMV6-Entry (OriGene); also called claudin-9
T3 sequence: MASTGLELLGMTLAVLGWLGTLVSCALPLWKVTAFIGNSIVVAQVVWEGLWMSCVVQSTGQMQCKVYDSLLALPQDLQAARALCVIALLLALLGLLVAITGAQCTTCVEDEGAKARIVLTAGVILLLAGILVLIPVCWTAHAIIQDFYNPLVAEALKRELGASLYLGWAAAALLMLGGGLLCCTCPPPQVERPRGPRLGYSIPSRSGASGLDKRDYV
Protocol: (§3) The binding activity of the humanized anti-CLDN6 antibody produced in Example 10 to human CLDN6 and its family molecules, CLDN3, CLDN4, and CLDN9, was evaluated by using a flow cytometry method. […] The cells were washed with Dulbecco's phosphate buffered saline (Sigma-Aldrich Co. LLC) containing 5% fetal bovine serum (Hyclone) (hereinafter, referred to as 5% FBS-containing PBS), and FITC AffiniPureF (ab′)2 Fragment Goat Anti-Human IgG (H+L) (Jackson ImmunoResearch Laboratories Inc.) 150-fold diluted with 5% FBS-containing PBS was then added thereto, and the cells were suspended and left to stand at 4° C. for 30 minutes. After washing with 5% FBS-containing PBS, detection was carried out by using a flow cytometer (FC500; Beckman Coulter, Inc.). Data analysis was carried out by using FlowJo (Tree Star, Inc.), and mean fluorescence intensity (MFI) of FITC, which indicates the amount of the binding antibody, was calculated. […] In each graph in FIG. 42, the abscissa represents antibody concentrations and the ordinate represents MFI.

human CLDN6 = target: T4, human CLDN6 (human, UniProt P56747 1-220); assay: as above
T4 construct: Four-transmembrane protein, NP_067018; It was also expressed on CHO-K1 cells by cDNA transfection; In the immunoprecipitation it was the endogenous protein from NTERA-2 cell lysate; also called hCLDN6; claudin-6
T4 sequence: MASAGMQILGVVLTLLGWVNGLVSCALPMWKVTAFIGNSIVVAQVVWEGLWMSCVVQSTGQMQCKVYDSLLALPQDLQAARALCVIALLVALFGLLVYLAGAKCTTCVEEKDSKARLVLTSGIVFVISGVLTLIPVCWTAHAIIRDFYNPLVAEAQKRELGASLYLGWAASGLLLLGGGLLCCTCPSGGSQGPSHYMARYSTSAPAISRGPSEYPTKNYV
Protocol: as §3

human claudin-6 = target: T5, human claudin-6 (Homo sapiens, UniProt P56747); assay: FACS analysis of 218B1/218C7 antibodies on human claudin-6-expressing CHO-K1 cells; type: binding; conditions: forced expression by cDNA transfection
T5 construct: expressed in transfected cells; host or cells: CHO-K1 cells
T5 sequence (P56747 1-220): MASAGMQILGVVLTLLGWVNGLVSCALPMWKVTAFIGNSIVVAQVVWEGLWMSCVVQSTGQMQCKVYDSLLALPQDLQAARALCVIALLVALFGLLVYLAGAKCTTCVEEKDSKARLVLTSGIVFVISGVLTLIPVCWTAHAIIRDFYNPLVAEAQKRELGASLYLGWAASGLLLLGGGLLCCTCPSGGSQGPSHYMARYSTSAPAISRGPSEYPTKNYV
Protocol: Since the antigen for the 218B1 antibody and 218C7 antibody was estimated to be claudin-6 from the mass spectrometry, forced expression analysis by cDNA transfection was carried out.

NIH:OVCAR-3 = assay: Internalization activity by Mab-ZAP (saporin-conjugated anti-mouse IgG), cell survival; type: cell-based; conditions: human CLDN6-positive ovarian cancer cell line NIH:OVCAR-3; antibody 1 nM, Mab-ZAP 0.5 nM; 5 days
Protocol: (§4) Internalization activity of the mouse anti-CLDN6 antibodies B1 and C7 was evaluated by using the anti-mouse IgG reagent, to which a toxin that inhibits protein synthesis (saporin) had been conjugated, Mab-ZAP (Advanced Targeting Systems). In this evaluation, Mab-ZAP is incorporated into cells in a manner depending on the internalization activity of a mouse anti-CLDN6 antibody, and saporin, which inhibits protein synthesis, is released in the cells to suppress cell growth.
(§5) JEG-3(ATCC HTB-36), a human choriocarcinoma cell line of human CLDN6-positive cells, NIH:OVCAR-3 (ATCC HTB-161), a human ovarian cancer cell line of human CLDN6-positive cells, or BxPC-3 (ATCC CRL-1687), a human pancreatic cancer cell line of human CLDN6-negative cells, was seeded in a 96-well cell culture microplate at 2×10^3 cells/well, and cultured under conditions of 37° C. and 5% CO2 overnight. On the next day, a mixed solution obtained by mixing each mouse anti-CLDN6 antibody or mouse IgG1 antibody (R&D Systems, Inc.) to a final concentration of 1 nM, with Mab-ZAP (final concentration: 0.5 nM) or AffiniPure Goat Anti-Mouse IgG, Fcγ Fragment Specific (Jackson ImmunoResearch Laboratories Inc.) (final concentration: 0.5 nM), without conjugated toxin, was added, and the cells were cultured under conditions of 37° C. and 5% CO2 for 5 days. The number of surviving cells was determined through quantification of ATP activity by using CellTiter-Glo Luminescent Cell Viability Assay (Promega Corporation).

BxPC-3 = assay: as above; type: cell-based; conditions: human CLDN6-negative pancreatic cancer cell line BxPC-3; antibody 1 nM, Mab-ZAP 0.5 nM; 5 days
Protocol: as §4, §5

JEG-3 = assay: as above; type: cell-based; conditions: human CLDN6-positive choriocarcinoma cell line JEG-3; antibody 1 nM, Mab-ZAP 0.5 nM; 5 days
Protocol: as §4, §5

Molecule | binding result (human CLDN4) | binding result (human CLDN3) | binding result (human CLDN9) | binding result (human CLDN6) | FACS reaction for human claudin-6-expressing CHO-K1 cells (human claudin-6) | cell growth-suppressing effect (relative survival rate) with Mab-ZAP (NIH:OVCAR-3) | cell growth-suppressing effect (relative survival rate) with Mab-ZAP (BxPC-3) | cell growth-suppressing effect (relative survival rate) with Mab-ZAP (JEG-3)
humanized anti-CLDN6 antibody H1L3 (antibody, human IgG1, kappa, L234A L235A, V domains shown, hH1 + hL3, with human IgG1 LALA constant region and human kappa chain; also called H1L3 antibody) VH: QVQLVQSGAEVKKPGASVKVSCKASGYTFTEYTMHWVRQAPGQGLEWMGGVNPNSGDTSYAQKFQGRVTITADTSTSTAYMELSSLRSEDTAVYYCARPGGYDVGYYAMDYWGQGTLVTVSS VL: DIQMTQSPSSLSASVGDRVTITCRASQDINNYLNWYQQKPGGAVKLLIYFTSRLHSGVPSRFSGSGSGTDYTLTISSLQPEDFATYYCQQGYPLPWTFGGGTKVEIKR | no binding (tested: 100 nM) | no binding (tested: 100 nM) | binds | binds |  |  |  | 
humanized anti-CLDN6 antibody H1L1 (antibody, human IgG1, kappa, L234A L235A, V domains shown, hH1 + hL1, with human IgG1 LALA constant region and human kappa chain; also called H1L1 antibody) VH: QVQLVQSGAEVKKPGASVKVSCKASGYTFTEYTMHWVRQAPGQGLEWMGGVNPNSGDTSYAQKFQGRVTITADTSTSTAYMELSSLRSEDTAVYYCARPGGYDVGYYAMDYWGQGTLVTVSS VL: DIQMTQSPSSLSASVGDRVTITCRASQDINNYLNWYQQKPGKAPKLLIYFTSRLHSGVPSRFSGSGSGTDYTLTISSLQPEDFATYYCQQGYPLPWTFGQGTKVEIKR | no binding (tested: 100 nM) | no binding (tested: 100 nM) | binds | binds |  |  |  | 
humanized anti-CLDN6 antibody H2L2 (antibody, human IgG1, kappa, L234A L235A, V domains shown, hH2 + hL2, with human IgG1 LALA constant region and human kappa chain; also called H2L2 antibody) VH: EVQLVQSGAEVKKPGASVKVSCKTSGYTFTEYTMHWVRQAPGKSLEWMGGVNPNSGDTSYAQKFQGRVTITADTSTSTAYMELSSLRSEDTAVYYCARPGGYDVGYYAMDYWGQGTLVTVSS VL: DIQMTQSPSSLSASVGDRVTITCRASQDINNYLNWYQQKPGKAVKLLIYFTSRLHSGVPSRFSGSGSGTHYTLTISSLQPEDFATYYCQQGYPLPWTFGQGTKVEIKR | no binding (tested: 100 nM) | no binding (tested: 100 nM) | binds | binds |  |  |  | 
humanized anti-CLDN6 antibody H2L4 (antibody, human IgG1, kappa, L234A L235A, V domains shown, also called H2L4 antibody) VH: EVQLVQSGAEVKKPGASVKVSCKTSGYTFTEYTMHWVRQAPGKSLEWMGGVNPNSGDTSYAQKFQGRVTITADTSTSTAYMELSSLRSEDTAVYYCARPGGYDVGYYAMDYWGQGTLVTVSS VL: DIQMTQSPSSLSASVGDRVTITCRASQDINNYLNWYQQKPGGAVKLLIYFTSRLHSGVPSRFSGSGSGTDYTLTISSLQPEDFATYYCQQGNTLPWTFGGGTKVEIKR | no binding (tested: 100 nM) | no binding (tested: 100 nM) | binds | binds |  |  |  | 
humanized anti-CLDN6 antibody H3L3 (antibody, human IgG1, kappa, L234A L235A, V domains shown, hH3 + hL3, with human IgG1 LALA constant region and human kappa chain; also called H3L3 antibody) VH: EVQLVQSGAEVKKPGASVKVSCKTSGYTFTEYTMHWVRQAPGQGLEWMGGVNPNSGDTSYAQKFQGRVTLTVDKSTSTAYMELSSLRSEDTAVYYCARPGGYDVGYYAMDYWGQGTLVTVSS VL: DIQMTQSPSSLSASVGDRVTITCRASQDINNYLNWYQQKPGGAVKLLIYFTSRLHSGVPSRFSGSGSGTDYTLTISSLQPEDFATYYCQQGYPLPWTFGGGTKVEIKR | no binding (tested: 100 nM) | no binding (tested: 100 nM) | binds | binds |  |  |  | 
B1: mouse anti-CLDN6 antibody; heavy/light chain variable regions SEQ ID NO: 21 and 19 (antibody, listed as Mus musculus, V domains shown, amino acid sequence of variable region of B1 antibody heavy chain; amino acid sequence of variable region of B1 antibody light chain) VH: EVQLQQSGPELVKPGASVKISCKTSGYTFTEYTMHWVQQSHGKSLEWIGGVNPNSGDTSYNQKFKGKATLTVDKSSSTAYMELRSLTSEDSAVYYCARPGGYDVGYYAMDYWGQGTSVTVSS VL: DIQMTQTASSLSASLGDRVTISCRASQDINNYLNWYQQKPDGTVKLLIYFTSRLHSGVPSRFSGSGSGTHYSLTITNLEQEDIATYFCQQGYPLPWTFGGGTKLEIK |  |  |  |  | strong positive reaction | cell growth-suppressing effect | no cell growth-suppressing effect | cell growth-suppressing effect
